Two molecules from PMC10275993 can be followed below.

The target of this assay is acidic H8 loop of karyopherin β2 (KAPB2-H8). Briefly: turbidity (OD600) of liquid-liquid phase separation, critical salt concentration; 50 μM R-DPR peptide mixed with 50 μM KAPB2-H8 peptide in 10 mM HEPES pH 7.4 with 0 to 400 mM NaCl; droplets also imaged by confocal microscopy.

B1: (GR)20 (peptide)
peptide: GRGRGRGRGRGRGRGRGRGRGRGRGRGRGRGRGRGRGRGR
Regarding B1, the NaCl concentration until which the droplets remained is 300 mM.

B2: (PR)20 (peptide)
peptide: PRPRPRPRPRPRPRPRPRPRPRPRPRPRPRPRPRPRPRPR
For B2, the critical salt concentration (NaCl at which the droplets disappeared) was found to be 250 mM.
